Measurements published in US20240042018A1 (University of Washington, published 2024).

T1: I53_dn5B trimer
T1 chain: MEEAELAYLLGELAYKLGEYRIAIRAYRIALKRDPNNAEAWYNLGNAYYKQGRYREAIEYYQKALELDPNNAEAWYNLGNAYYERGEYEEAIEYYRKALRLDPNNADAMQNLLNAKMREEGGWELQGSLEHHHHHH

B1: I53_dn5A_D120C pentamer coupled to 1 kDa PEG (designed binder)
chain: MGKYDGSKLRIGILHARGNAEIILALVLGALKRLQEFGVKRENIIIETVPGSFELPYGSKLFVEKQKRLGKPLDAIIPIGVLIRGSTPHFDYIADSTTHQLMKLNFELGIPVIFGVITADTCEQAEARAGLIEGKMHNHGEDWGAAAVEMATKFNGGWELQLEGSHHHHHH
B2: I53_dn5A_D120C pentamer coupled to 2 kDa PEG (designed binder)
chain: MGKYDGSKLRIGILHARGNAEIILALVLGALKRLQEFGVKRENIIIETVPGSFELPYGSKLFVEKQKRLGKPLDAIIPIGVLIRGSTPHFDYIADSTTHQLMKLNFELGIPVIFGVITADTCEQAEARAGLIEGKMHNHGEDWGAAAVEMATKFNGGWELQLEGSHHHHHH
B3: I53_dn5A_S84C_D120C pentamer coupled to 5 kDa PEG (designed binder)
chain: MGKYDGSKLRIGILHARGNAEIILALVLGALKRLQEFGVKRENIIIETVPGSFELPYGSKLFVEKQKRLGKPLDAIIPIGVLIRGCTPHFDYIADSTTHQLMKLNFELGIPVIFGVITADTCEQAEARAGLIEGKMHNHGEDWGAAAVEMATKFNGGWELQLEGSHHHHHH
modifications: 5 kDa PEG-maleimide on Cys84 and Cys120
B4: I53_dn5A_S84C_D120C pentamer coupled to 1 kDa PEG (designed binder)
chain: MGKYDGSKLRIGILHARGNAEIILALVLGALKRLQEFGVKRENIIIETVPGSFELPYGSKLFVEKQKRLGKPLDAIIPIGVLIRGCTPHFDYIADSTTHQLMKLNFELGIPVIFGVITADTCEQAEARAGLIEGKMHNHGEDWGAAAVEMATKFNGGWELQLEGSHHHHHH
B5: I53_dn5A_2C2kPEG pentamer (designed binder)
chain: MGKYDGSKLRIGILHARGNAEIILALVLGALKRLQEFGVKRENIIIETVPGSFELPYGSKLFVEKQKRLGKPLDAIIPIGVLIRGCTPHFDYIADSTTHQLMKLNFELGIPVIFGVITADTCEQAEARAGLIEGKMHNHGEDWGAAAVEMATKFNGGWELQLEGSHHHHHH
B6: I53_dn5Acp7 PAS pentamer (designed binder)
chain: MGSHHHHHHGSDEQAEERAGTKAGNHGEDWGAAAVEMATKFNGSGGSGKYDGSKLRIGILHARGNAEIILELVLGALKRLQEFGVKRENIIIETVPGSFELPYGSKLFVEKQKRLGKPLDAIIPIGVLIRGSTAHFDYIADSTTHQLMKLNFELGIPVIFGVLTTESGGSASPAAPAPASPAAPAPSAPAAASPAAPAPASPAAPAPSAPAAASPAAPAPASPAAPAPSAPAA
B7: I53_dn5Acp7 pentamer with ELP fused to the C terminus (designed binder)
chain: MGSHHHHHHGSDEQAEERAGTKAGNHGEDWGAAAVEMATKFNGSGGSGKYDGSKLRIGILHARGNAEIILELVLGALKRLQEFGVKRENIIIETVPGSFELPYGSKLFVEKQKRLGKPLDAIIPIGVLIRGSTAHFDYIADSTTHQLMKLNFELGIPVIFGVLTTES
B8: I53_dn5A_1C5kPEG pentamer (designed binder)
chain: MGKYDGSKLRIGILHARGNAEIILALVLGALKRLQEFGVKRENIIIETVPGSFELPYGSKLFVEKQKRLGKPLDAIIPIGVLIRGSTPHFDYIADSTTHQLMKLNFELGIPVIFGVITADTCEQAEARAGLIEGKMHNHGEDWGAAAVEMATKFNGGWELQLEGSHHHHHH
B9: SEQ ID NO 77 (I53-50A_7gly) (designed binder)
chain: EELFKKHKIVAVLRANSVEEAIEKAVAVFAGGVHLIEITFTVPNATTVIKALSVLKEKGAIIGAGTVTSVEYANETVESNATFIVSPHLDEEISNFTKEKNVTYMPGVMTPTELVKAMKLNVTILKLFPGEVVGPQFVKAMKGPFHNATFVPTGGVNLDNVCEWFKAGVLAVGVGSALVKGTPDEVREKAKAFVEKIRGC
modifications: N-linked glycans at sequons 45-NAT-47; 73-YANET-77; 81-NAT-83; 96-NFT-98; 102-NVT-104; 122-NVT-124; 146-FHNAT-150
B10: SEQ ID NO 76 (I53-50A_7gly) (designed binder)
chain: EELFKKHKIVAVLRANSVEEAIEKAVAVFAGGVHLIEITFTVPNATTVIKALSVLKEKGAIIGAGTVFSNETCRKAVESNATFIVSPHLDEEISNFTKEKNVTYMPGVMTPTELVKAMKLNVTILKLFPGEVVGPQFVKAMKGPFHNATFVPTGGVNLDNVCEWFKAGVLAVGVGSALVKGTPDEVREKAKAFVEKIRGC
modifications: N-linked glycans at sequons 45-NAT-47; 69-FSNET-73; 81-NAT-83; 96-NFT-98; 102-NVT-104; 122-NVT-124; 146-FHNAT-150
B11: SEQ ID NO 75 (I53-50A_6gly) (designed binder)
chain: EELFKKHKIVAVLRANSVEEAIEKAVAVFAGGVHLIEITFTVPNATTVIKALSVLKEKGAIIGAGTVTSVEYANETVESGAEFIVSPHLDEEISNFTKEKNVTYMPGVMTPTELVKAMKLNVTILKLFPGEVVGPQFVKAMKGPFHNATFVPTGGVNLDNVCEWFKAGVLAVGVGSALVKGTPDEVREKAKAFVEKIRGC
modifications: N-linked glycans at sequons 45-NAT-47; 73-YANET-77; 96-NFT-98; 102-NVT-104; 122-NVT-124; 146-FHNAT-150
B12: SEQ ID NO 70 (I53-50A_4gly) (designed binder)
chain: EELFKKHKIVAVLRANSVEEAIEKAVAVFAGGVHLIEITFTVPDADTVIKALSVLKEKGAIIGAGTVFSNETCRKAVESNATFIVSPHLDEEISNFTKEKNVTYMPGVMTPTELVKAMKLGHTILKLFPGEVVGPQFVKAMKGPFPNVKFVPTGGVNLDNVCEWFKAGVLAVGVGSALVKGTPDEVREKAKAFVEKIRGC
modifications: N-linked glycans at sequons 69-FSNET-73; 81-NAT-83; 96-NFT-98; 102-NVT-104
B13: SEQ ID NO 69 (I53-50A_4gly) (designed binder)
chain: EELFKKHKIVAVLRANSVEEAIEKAVAVFAGGVHLIEITFTVPDADTVIKALSVLKEKGAIIGAGTVTSVEQCRKAVESGAEFIVSPHLDEEISNFTKEKNVTYMPGVMTPTELVKAMKLNVTILKLFPGEVVGPQFVKAMKGPFHNATFVPTGGVNLDNVCEWFKAGVLAVGVGSALVKGTPDEVREKAKAFVEKIRGC
modifications: N-linked glycans at sequons 96-NFT-98; 102-NVT-104; 122-NVT-124; 146-FHNAT-150
B14: SEQ ID NO 74 (I53-50A_6gly) (designed binder)
chain: EELFKKHKIVAVLRANSVEEAIEKAVAVFAGGVHLIEITFTVPNATTVIKALSVLKEKGAIIGAGTVTSVEQCRKAVESNATFIVSPHLDEEISNFTKEKNVTYMPGVMTPTELVKAMKLNVTILKLFPGEVVGPQFVKAMKGPFHNATFVPTGGVNLDNVCEWFKAGVLAVGVGSALVKGTPDEVREKAKAFVEKIRGC
modifications: N-linked glycans at sequons 45-NAT-47; 81-NAT-83; 96-NFT-98; 102-NVT-104; 122-NVT-124; 146-FHNAT-150
B15: SEQ ID NO 71 (I53-50A_5gly) (designed binder)
chain: EELFKKHKIVAVLRANSVEEAIEKAVAVFAGGVHLIEITFTVPNATTVIKALSVLKEKGAIIGAGTVTSVEYANETVESGAEFIVSPHLDEEISNFTKEKGVFYMPGVMTPTELVKAMKLNVTILKLFPGEVVGPQFVKAMKGPFHNATFVPTGGVNLDNVCEWFKAGVLAVGVGSALVKGTPDEVREKAKAFVEKIRGC
modifications: N-linked glycans at sequons 45-NAT-47; 73-YANET-77; 96-NFT-98; 122-NVT-124; 146-FHNAT-150
B16: SEQ ID NO 68 (I53-50A_4gly) (designed binder)
chain: EELFKKHKIVAVLRANSVEEAIEKAVAVFAGGVHLIEITFTVPNATTVIKALSVLKEKGAIIGAGTVTSVEYANETVESNATFIVSPHLDEEISNFTKEKGVFYMPGVMTPTELVKAMKLGHTILKLFPGEVVGPQFVKAMKGPFPNVKFVPTGGVNLDNVCEWFKAGVLAVGVGSALVKGTPDEVREKAKAFVEKIRGC
modifications: N-linked glycans at sequons 45-NAT-47; 73-YANET-77; 81-NAT-83; 96-NFT-98
B17: SEQ ID NO 73 (I53-50A_6gly) (designed binder)
chain: EELFKKHKIVAVLRANSVEEAIEKAVAVFAGGVHLIEITFTVPNATTVIKALSVLKEKGAIIGAGTVFSNETCRKAVESGAEFIVSPHLDEEISNFTKEKNVTYMPGVMTPTELVKAMKLNVTILKLFPGEVVGPQFVKAMKGPFHNATFVPTGGVNLDNVCEWFKAGVLAVGVGSALVKGTPDEVREKAKAFVEKIRGC
modifications: N-linked glycans at sequons 45-NAT-47; 69-FSNET-73; 96-NFT-98; 102-NVT-104; 122-NVT-124; 146-FHNAT-150
B18: I53-50A_4gly trimer (designed binder)
chain: EELFKKHKIVAVLRANSVEEAIEKAVAVFAGGVHLIEITFTVPNATTVIKALSVLKEKGAIIGAGTVTSVEYANETVESGAEFIVSPHLDEEISNFTKEKGVFYMPGVMTPTELVKAMKLGHTILKLFPGEVVGPQFVKAMKGPFHNATFVPTGGVNLDNVCEWFKAGVLAVGVGSALVKGTPDEVREKAKAFVEKIRGCLEEQKLISEEDLHHHHHH
modifications: N-linked glycans at sequons 45-NAT-47; 73-YANET-77; 96-NFT-98; 146-FHNAT-150
B19: SEQ ID NO 49 (I53_dn5A_3gly) (designed binder)
chain: KYDGSKLRIGILHARGNAEIILELVLGALKRLQEFGVKRENIIIETVPGSFELPYGSKLFVEKQKRLGKPLDAIIPIGVLIRNETAHFDYIADSTTHQLMKLNFELGIPVIFGVLTTNDTEQAEERAGTNATNHGEDWGAAAVEMATKFNLEEQKLISEEDLHHHHHH
modifications: N-linked glycans at sequons 83-NET-85; 118-NDT-120; 130-NAT-132
B20: SEQ ID NO 55 (I53_dn5A_2gly) (designed binder)
chain: KYDGSKLRIGILHARGNAEIILELVLGALKRLQEFGVKRENIIIETVPGSFELPYGSKLFVEKQKRLGKPLDAIIPIGVLIRGSTAHFDYIADSTTHQLMKLNFELGIPVIFGVLTTESNETAEERAGTNATNHGEDWGAAAVEMATKFNLEEQKLISEEDLHHHHHH
modifications: N-linked glycans at sequons 120-NET-122; 130-NAT-132
B21: SEQ ID NO 51 (I53_dn5A_3gly) (designed binder)
chain: KYDGSKLRIGILHARGNAEIILELVLGALKRLQEFGVKRENIIIETVPGSFELPYGSKLFVEKQKRLGKPLDAIIPIGVLIRGNDTHFDYIADSTTHQLMKLNFELGIPVIFGVLTTNDTEQAEERAGTNATNHGEDWGAAAVEMATKFNLEEQKLISEEDLHHHHHH
modifications: N-linked glycans at sequons 84-NDT-86; 118-NDT-120; 130-NAT-132
B22: SEQ ID NO 50 (I53_dn5A_3gly) (designed binder)
chain: KYDGSKLRIGILHARGNAEIILELVLGALKRLQEFGVKRENIIIETVPGSFELPYGSKLFVEKQKRLGKPLDAIIPIGVLIRGNDTHFDYIADSTTHQLMKLNFELGIPVIFGVLTTESNETAEERAGTKNGTHGEDWGAAAVEMATKFNLEEQKLISEEDLHHHHHH
modifications: N-linked glycans at sequons 84-NDT-86; 120-NET-122; 131-NGT-133
B23: SEQ ID NO 52 (I53_dn5A_2gly) (designed binder)
chain: KYDGSKLRIGILHARGNAEIILELVLGALKRLQEFGVKRENIIIETVPGSFELPYGSKLFVEKQKRLGKPLDAIIPIGVLIRNDTAHFDYIADSTTHQLMKLNFELGIPVIFGVLTTESDEQAEERAGTNATNHGEDWGAAAVEMATKFNLEEQKLISEEDLHHHHHH
modifications: N-linked glycans at sequons 83-NDT-85; 130-NAT-132
B24: SEQ ID NO 53 (I53_dn5A_2gly) (designed binder)
chain: KYDGSKLRIGILHARGNAEIILELVLGALKRLQEFGVKRENIIIETVPGSFELPYGSKLFVEKQKRLGKPLDAIIPIGVLIRGNDTHFDYIADSTTHQLMKLNFELGIPVIFGVLTTESDEQAEERAGTKNGTHGEDWGAAAVEMATKFNLEEQKLISEEDLHHHHHH
modifications: N-linked glycans at sequons 84-NDT-86; 131-NGT-133

Molecular target: T1, I53_dn5B trimer
Test: in vitro nanoparticle assembly, SEC
B1: binds. B2: binds. B3: binds. B4: binds. B5: binds. B6: binds. B7: binds.

Molecular target: T1, I53_dn5B trimer
Test: in vitro nanoparticle assembly, SEC and SDS-PAGE
B8: binds.

Each binder was assayed against I53-50B.4PT1 pentamer (assay: in vitro nanoparticle assembly (Table 3; '-' means no nanoparticle assembly)).
B9: no binding. B10: no binding. B11: no binding.

These binders were tested against I53-50B.4PT1 pentamer (assay: nanoparticle assembly grade, Table 3).
B12: binds. B13: binds. B14: binds. B15: binds. B16: binds. B17: binds. B18: binds.

Molecular target: T1, I53_dn5B trimer
Test: nanoparticle assembly grade, Table 3
B19: binds. B20: binds. B21: binds. B22: binds. B23: binds. B24: binds.
